# Laboratory results taken from article PMC5374532, “Rational mutagenesis by engineering disulphide bonds improves Kluyveromyces lactis beta-galactosidase for high-temperature industrial applications” (Scientific Reports, 2017).
# B1: Kl-β-Gal (Kluyveromyces lactis β-galactosidase) (Kluyveromyces lactis NRRL Y-1140) (protein)
# chain: SCLIPENLRNPKKVHENRLPTRAYYYDQDIFESLNGPWAFALFDAPLDAPDAKNLDWETAKKWSTISVPSHWELQEDWKYGKPIYTNVQYPIPIDIPNPPTVNPTGVYARTFELDSKSIESFEHRLRFEGVDNCYELYVNGQYVGFNKGSRNGAEFDIQKYVSEGENLVVVKVFKWSDSTYIEDQDQWWLSGIYRDVSLLKLPKKAHIEDVRVTTTFVDSQYQDAELSVKVDVQGSSYDHINFTLYEPEDGSKVYDASSLLNEENGNTTFSTKEFISFSTKKNEETAFKINVKAPEHWTAENPTLYKYQLDLIGSDGSVIQSIKHHVGFRQVELKDGNITVNGKDILFRGVNRHDHHPRFGRAVPLDFVVRDLILMKKFNINAVRNSHYPNHPKVYDLFDKLGFWVIDEADLETHGVQEPFNRHTNLEAEYPDTKNKLYDVNAHYLSDNPEYEVAYLDRASQLVLRDVNHPSIIIWSLGNEACYGRNHKAMYKLIKQLDPTRLVHYEGDLNALSADIFSFMYPTFEIMERWRKNHTDENGKFEKPLILCEYGHAMGNGPGSLKEYQELFYKEKFYQGGFIWEWANHGIEFEDVSTADGKLHKAYAYGGDFKEEVHDGVFIMDGLCNSEHNPTPGLVEYKKVIEPVHIKIAHGSVTITNKHDFITTDHLLFIDKDTGKTIDVPSLKPEESVTIPSDTTYVVAVLKDDAGVLKAGHEIAWGQAELPLKVPDFVTETAEKAAKINDGKRYVSVESSGLHFILDKLLGKIESLKVKGKEISSKFEGSSITFWRPPTNNDEPRDFKNWKKYNIDLMKQNIHGVSVEKGSNGSLAVVTVNSRISPVVFYYGFETVQKYTIFANKINLNTSMKLTGEYQPPDFPRVGYEFWLGDSYESFEWLGRGPGESYPDKKESQRFGLYDSKDVEEFVYDYPQENGNHTDTHFLNIKFEGAGKLSIFQKEKPFNFKISDEYGVDEAAHACDVKRYGRHYLRLDHAIHGVGSEACGPAVLDQYRLKAQDFNFEFDLAFE
# notes: full length, N-terminal FLAG tag kept (YEpFLAG vector); monomer 118 kDa; active as dimer and tetramer
# Substrate: O=[N+]([O-])c1ccc(O[C@@H]2O[C@H](CO)[C@H](O)[C@H](O)[C@H]2O)cc1
# Assay: purified protein
# Format: biochemical, Kluyveromyces lactis
# Settings: Z buffer (100 mM Na2HPO4, 40 mM NaH2PO4, 10 mM KCl, 1.6 mM MgSO4), 30 °C, 0.3 μg/mL enzyme, substrate 0-20 mM
protein,measurement,value
B1,Km,2150 ± 520 µM
same,Vmax,71.9 µmol/min/mg
